Assay results published in the supplement of paper PMC9170038.

System: MS2 coat protein
Assay: apparent KD of MS2 coat protein; designed switch direction (-1 OFF switch, 1 ON switch): 1; higher = weaker reporter binding
Outline: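 Designed RNA switches with common flanks were made on Illumina chips by stalled E. coli RNA polymerase. Titration with SNAP-549-labelled MS2 coat protein doubled from 0.7 or 1.5 nM up to 3 µM. Apparent KD is each design's median over clusters after curve-fitting normalised fluorescence.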

[1] = Eterna round: R95, input ligand: FMN 200 uM
[2] = Eterna round: R95, input ligand: microRNA oligo, concentration not stated
[3] = Eterna round: R95, input ligand: none
[4] = input ligand: microRNA oligo, concentration not stated

Row | Sequence | apparent KD of MS2 coat protein [1] | apparent KD of MS2 coat protein [2] | apparent KD of MS2 coat protein [3] | apparent KD of MS2 coat protein (input ligand: FMN 200 uM) | apparent KD of MS2 coat protein [4] | apparent KD of MS2 coat protein (input ligand: none)
1 | AGUGAACAUGAGGAUCACCCAUGUGAGAGGGAUGUAGGAUAUGUAAGGAAGUAAGAUGGAACAGAAGGACAAAGUG [JR_SS!_Sub067] (puzzle: Same State 1) | 38.6 nM | 46.1 nM | 50.4 nM | – | – | –
2 | AUAAAACAUGAGGAUCACCCAUGUCAACAAAGUCGAGGAUAUGGGCAAAUAAAAUAAGAACCAGAAGGCGAAUAUU [salish99_ss1_r3_037] (Eterna round: R96, puzzle: Same State 1) | – | – | – | 43.8 nM | 262 nM | 261 nM
3 | AUAAAACAUGAGGAUCACCCAUGUCAACAAAGUCGAGGAUAUGGGCAAAUAAAAUAAGAACCAGAAGGCGAAUAUU [salish99_ss1_r3_037] (puzzle: Same State 1) | 31 nM | 382 nM | 750 nM | – | – | –
4 | AUAAAACAUGAGGAUCACCCAUGUCAACAAAGUCGAGGAUAUGGGCUAAUAAAAUAAGAACCAGAAGGCGAAUAAU [salish99_ss1_r3_027] (puzzle: Same State 1) | 26.2 nM | 152 nM | 146 nM | – | – | –
5 | AUAAAACAUGAGGAUCACCCAUGUCAACAAAGUCGAGGAUAUGUGCAAAUAAAAUAAGAACCAGAAGGCGAAUAAU [salish99_ss1_r3_049] (puzzle: Same State 1) | 16.2 nM | 22.3 nM | 37.9 nM | – | – | –
6 | AUAACACUGGCAGGAUAUGGGAAAGGAAGUGUACCAGAAGGGCCAGAACGGCGAUGGACAUGAGGAUCACCCAUGUCUUAGCCU [PowerStrip SSNG 1.4] (Eterna round: R96, puzzle: Same State NG 1) | – | – | – | 12.7 nM | 11.4 nM | 13.9 nM
7 | AUAAGACAGGCAGGAUAUGGGCCUGACUCUGAUAUCAGAGUCUACACAUGAGGAUCACCCAUGUCCCAGAAGGGCCUGAAGAAG [Zavean] (Eterna round: R96, puzzle: Same State NG 2) | – | – | – | 17.6 nM | 92.2 nM | 102 nM
8 | AUAAGGCAAGCUUUUUUCUCGUAGUAUAAACAUGAGGAUCACCCAUGUGCCUACCCUGGAUCUUUGGAUCGCAGAAA [Ravebiat] (puzzle: Sensor for hsa-mir-208a) | 22.1 nM | 15.7 nM | 28.3 nM | – | – | –
9 | AUAAGUUCGAUGCUCGUCUCUCCGUACUAACAUGAGGAUCACCCAUGUGAUCGGGCAGUAGCCCGAUCAGUAUGGCC [Bizain] (puzzle: Sensor for hsa-mir-208a) | 90.7 nM | 68.3 nM | 114 nM | – | – | –
10 | AUAAUAAUAAGUCAGGAUAUGUUGAUAAAGACAUGAGGAUCACCCAUGUGAAAUAAAAUAAUAAUACAGAAGGGACAAUAAUAAA [JMF's solution 3] (puzzle: Same State 2) | 252 nM | 64 nM | 265 nM | – | – | –
11 | AUAAUUAAUGCAGGAUAUGAUUAACAUGAGGAUCACCCAUGUGGUGUUGUGAGUAAGGAGAGUGAUCAGAAGGGCAUUUUUUUU [JMF's solution 33] (Eterna round: R96, puzzle: Same State NG 2) | – | – | – | 666 nM | 298 nM | 343 nM
12 | AUAAUUUAUGCAGGAUAUGAUUAACAUGAGGAUCACCCAUGUGGUGUUGUGAGUAAGGAGAGUGAUCAGAAGGGCAUUUUUUUU [JMF's solution 70] (Eterna round: R96, puzzle: Same State NG 2) | – | – | – | 734 nM | 391 nM | 400 nM
13 | AUAUAACAUGAGGAUCACCCAUGUCUCUAAAGUCGAGGAUAUGGGCAAAUAAUAUAAGAACCAGAAGGCGAAUUAU [SS1 Teenbexe 4] (puzzle: Same State 1) | 143 nM | 34.1 nM | 79.3 nM | – | – | –
